Assay results from patent US20250250335A1 (SHENGHE CHINA BIOPHARMACEUTICAL, published 2025).
Where a chain is given by its changes, count along the chain named. Where two headings read alike, the source gives them in different places. One block for each binder: values may come before it.

What was measured:
Human-CEACAM6 (AB)-His = target: T1, Human-CEACAM6 (AB)-His (human, UniProt P40199 145-314); experiment: ELISA on coated human CEACAM6 (AB), OD450
T1 construct: Made in house, purified on a nickel column
T1 sequence (P40199 other isoform, or with tags, fused parts or gaps limits assumed): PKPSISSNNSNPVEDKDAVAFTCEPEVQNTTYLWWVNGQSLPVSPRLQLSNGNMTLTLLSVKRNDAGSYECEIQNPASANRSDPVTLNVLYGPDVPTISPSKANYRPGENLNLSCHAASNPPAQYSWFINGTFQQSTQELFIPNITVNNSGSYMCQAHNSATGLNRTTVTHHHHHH
Protocol: (§1) The binding activity of the antibodies to human CEACAM5, human CEACAM6, and human CEACAM6 (AB) proteins was detected by ELISA. The plate coated with proteins was incubated at 4° C. overnight, and the 96-well ELISA plate blocked with 2% PBS-BSA was added with the antibody to be detected and incubated at 37° C. for 1 h. After washing 3 times with PBS containing 0.05% Tween, the absorbance value of each well was read at wavelength 450 nm with the gradient-diluted mouse-derived candidate antibody as the primary antibody and anti-mouse-IgG-FC-HRP as the secondary antibody, and the absorbance value of each well was read at wavelength 450 nm after the TMB color development.

[1] = target: T2, human CEACAM5-his (ACRO CE5-H5226) (human, UniProt P06731 35-685); experiment: ELISA on coated human CEACAM5, OD450
T2 construct: Bought protein; not shown: His tag
T2 sequence (looked up): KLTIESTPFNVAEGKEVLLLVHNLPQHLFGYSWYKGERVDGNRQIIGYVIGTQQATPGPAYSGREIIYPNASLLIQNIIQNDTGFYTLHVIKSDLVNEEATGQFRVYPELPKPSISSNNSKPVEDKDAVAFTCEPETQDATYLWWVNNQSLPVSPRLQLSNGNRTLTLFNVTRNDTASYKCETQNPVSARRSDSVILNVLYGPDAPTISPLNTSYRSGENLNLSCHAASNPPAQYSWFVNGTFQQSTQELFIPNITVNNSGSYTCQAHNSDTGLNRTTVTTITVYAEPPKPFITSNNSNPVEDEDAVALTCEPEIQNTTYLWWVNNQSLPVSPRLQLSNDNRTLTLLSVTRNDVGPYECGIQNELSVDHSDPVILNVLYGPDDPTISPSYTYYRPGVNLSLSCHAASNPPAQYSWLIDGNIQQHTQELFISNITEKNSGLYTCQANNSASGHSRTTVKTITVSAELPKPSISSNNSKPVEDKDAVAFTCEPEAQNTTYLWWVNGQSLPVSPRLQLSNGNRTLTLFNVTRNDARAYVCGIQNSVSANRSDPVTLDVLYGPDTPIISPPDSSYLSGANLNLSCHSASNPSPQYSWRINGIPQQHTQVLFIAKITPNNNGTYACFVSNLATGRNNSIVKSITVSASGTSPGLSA
Protocol: as §1

[2] = target: T2, human CEACAM5-his (ACRO CE5-H5226); experiment: ELISA on coated human CEACAM5, OD450; remark: listed apart in the source
Protocol: as §1

[3] = target: T3, CEACAM5 on the surface of the tumor cells (HPAFII cells) (UniProt P06731 35-685); experiment: flow cytometry on HPAFII cells (Mean-FITC); the cells carry CEACAM5 and CEACAM6, signal not divided between the two
T3 construct: whole, on cells
T3 sequence (looked up): T2 sequence (looked up)
Protocol: (§2) The antibody to be tested was taken as the initial concentration of 200 nM and diluted 5-fold with 6 gradients. The HPAFII cells (From USTC […] FOR ADVANCED STUDIES) in the incubator were taken out, and the cell suspension was transferred to a 15 mL centrifuge tube, centrifuged, and counted by resuspension in PBS. A blank control group (Blank), a negative control group (NC), an experimental group, a positive control group and the irrelevant antibody group were kept. […] The cell suspension was spread in a 96-well plate according to about 3×10⁵ cells/well. Centrifugation (1000 rpm, 5 min) was performed, followed by washing with PBS, re-centrifugation, and repeated twice to remove media residues. The supernatant was discarded, 100 μL of primary antibody solution and irrelevant antibody solution were added to the experimental group and irrelevant antibody group, respectively, and the cells were resuspended and incubated at room temperature for 1 h. The blank group, and the negative control group were incubated with an equal amount of PBS.
(§3) After 1 h, PBS was added to wash twice. After the supernatant was discarded, 100 μL of fluorescent secondary antibody dilution (Mouse-derived secondary antibody from Abcam ab6785) was added to each sample group, except for the blank group which was added with 100 μL of PBS. After incubation at room temperature and protected from light for 0.5 h, centrifugation was performed and PBS added to wash the samples twice. After the supernatant was discarded, 120 μL of PBS was added to resuspend and sequentially flow cytometry was performed to detect the mean fluorescence intensity. The concentration of the antibody was logarithmically taken as the horizontal coordinate, and the Sigmoidaldose-response (VariableSlope) method (GraphPadPrism Software, GraphPadSoftware, San Diego, California) was chosen to perform a nonlinear regression to obtain the binding activity curves of the antibody on HPAFII cells.

[4] = target: T4, CEACAM6 on the surface of the tumor cells (HPAFII cells) (UniProt P40199 35-320); experiment: as above
T4 construct: whole, on cells
T4 sequence (looked up): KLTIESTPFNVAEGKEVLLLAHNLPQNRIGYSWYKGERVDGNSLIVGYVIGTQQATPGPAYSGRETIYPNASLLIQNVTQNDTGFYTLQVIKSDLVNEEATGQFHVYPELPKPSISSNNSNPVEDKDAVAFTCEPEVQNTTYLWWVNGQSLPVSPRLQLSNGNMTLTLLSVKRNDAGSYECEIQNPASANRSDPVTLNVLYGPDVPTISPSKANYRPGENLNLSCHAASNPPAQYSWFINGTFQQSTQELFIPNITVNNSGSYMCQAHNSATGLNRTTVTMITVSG
Protocol: as §2, §3

B3: Antibody 3 (antibody, V domains shown)
VH: EVQMVESGGGLVKPGGSLKLSCAASGFTFSDYYMYWVRQSPEKRLEWVATISDAGTYTSYLDSVKGRFIISRDNAKNNLYLQMSSLKSEDTAIYYCARNYYGSSPYGMDYWGQGTSVTVSS
VL: QIVLTQSPAIMSASPGEKVTMTCSASSSVIYMHWYQQKSGTSPKRWIYDTSKLASGVPARFSGSGSGTSYSLTISSMEAEDAATYYCQQWSSHPLTFGAGTKLELK
notes: Mouse-derived hybridoma antibody; also called mouse-derived antibody 3
EC50 (read off the curve) [3]: ~1 nM
EC50 (read off the curve) [4]: ~1 nM
EC50 (read off the curve) [1]: ~0.02 µg/mL

B4: Antibody 4 (antibody, V domains shown)
VH: QIQLVQSGPELKKPGETVKISCKASGYTFTDYSLHWVKQVPVKGLKWMGWINTETGEPTYADDFKGRFAFSLDTSASSAYLQIHNLKNEDTATYFCASPVSLLFYYFTVWGAGTTVTVSA
VL: DIQMTQTTSSLSASLGDRVTISCRASQDISHFLNWYQQKPDGTVELLIYYTSRLLSGVPSRFSGSGSGTDYSLTIANLEQEDIATYFCQQGKTLPWTFGGGTKVEIK
notes: Mouse-derived hybridoma antibody; also called mouse-derived antibody 4
EC50 (read off the curve) [3]: ~2 nM
EC50 (read off the curve) [4]: ~2 nM
EC50 (read off the curve) [1]: ~0.02 µg/mL

Next, values leading:

EC50 (read off the curve) (Human-CEACAM6 (AB)-His): ~0.04 µg/mL
binding result [1]: binds
B1: Antibody 5 (antibody, V domains shown)
VH: QIQLVQSGPELMKPGETVKISCKASGYTFTNYGMNWVKQAPGKGLKWLGWINTYTGKPTYADDIKERFVFSLETSASTAYLQINNLKNEDTATYFCARRDYRGWYFDVWGAGTPVTVSS
VL: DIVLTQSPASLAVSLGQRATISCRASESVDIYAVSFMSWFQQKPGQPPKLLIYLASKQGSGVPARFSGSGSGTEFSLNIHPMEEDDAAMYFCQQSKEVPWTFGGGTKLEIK
notes: Mouse-derived hybridoma antibody; also called mouse-derived antibody 5

EC50 (read off the curve) [2]: ~0.02 µg/mL
EC50 (read off the curve) (Human-CEACAM6 (AB)-His): ~0.009 µg/mL
B2: Antibody 12 (antibody, V domains shown)
VH: EVKLVESGGGLVQPGGSLSLSCAVSGFIFTDYFMSWVRQPPGKTLEWLALIRNKANGYIIEYSESVKGRFTISRGNSQSIFYLQMNALRTEDSATYYCARDIGIRWNFDVWGAGTTVTVSS
VL: B3 VL with S26T, S28R, I30T, D49A, K52T, S92Y, H93N, L95P, A99S, L105I
notes: Mouse-derived hybridoma antibody; also called mouse-derived antibody 12
